One may read the Km as the substrate concentration at which the rate is half of its maximum.

What all share (conditions): Hepacivirus hominis
Substrate in data set [1]: CCCN(NC(=O)[C@H]1CCCN1C(=O)[C@@H](NC(=O)[C@@H](NC(=O)[C@H](CC(=O)O)NC(=O)[C@H](CCC(=O)O)NC(=O)[C@@H](NC(C)=O)[C@@H](C)O)C(C)C)C(C)C)C(=O)Oc1ccc([N+](=O)[O-])cc1
Kind of data set: Binding affinity against Hepatitis C virus NS3 protease.

Substrate in data set [2]: CCCN(NC(=O)[C@H]1CCCN1C(=O)[C@@H](NC(=O)[C@@H](NC(=O)[C@H](CC(=O)O)NC(=O)[C@H](CCC(=O)O)NC(=O)[C@@H](NC(=O)[C@H](CC(=O)O)NC(C)=O)[C@@H](C)O)C(C)C)C(C)C)C(=O)Oc1ccc([N+](=O)[O-])cc1
The experiment in a line: Michaelis-Menten constant against Hepatitis C virus NS3 protease and represented as Km.

Substrate in data set [3]: CCCN(NC(=O)[C@H]1CCCN1C(=O)[C@@H](NC(=O)[C@@H](NC(=O)[C@H](CC(=O)O)NC(=O)[C@H](CCC(=O)O)NC(C)=O)C(C)C)C(C)C)C(=O)Oc1ccc([N+](=O)[O-])cc1
The experiment in a line: (§1) Michaelis-Menten constant was determined against Hepatitis C virus NS3 protease and represented as Km.

Substrate in data set [4]: CCCN(NC(=O)[C@H]1CCCN1C(=O)[C@@H](NC(=O)[C@@H](NC(=O)[C@H](CC(=O)O)NC(C)=O)C(C)C)C(C)C)C(=O)Oc1ccc([N+](=O)[O-])cc1
The data set is described as §1.

Substrate in data set [5]: CCCC(NC(=O)[C@H]1CCCN1C(=O)[C@@H](NC(=O)[C@@H](NC(=O)[C@H](CC(=O)O)NC(=O)[C@H](CCC(=O)O)NC(=O)[C@@H](NC(=O)[C@H](CC(=O)O)NC(C)=O)[C@@H](C)O)C(C)C)C(C)C)C(=O)Oc1ccc([N+](=O)[O-])cc1
The data set is described as §1.

Substrate in data set [6]: CCCN(NC(=O)[C@H]1CCCN1C(=O)[C@@H](NC(=O)[C@@H](NC(C)=O)C(C)C)C(C)C)C(=O)Oc1ccc([N+](=O)[O-])cc1
Described as §1.

B1: NS3 (Hepatitis C virus), A3EZJ3 (protein)
chain: APITAYAQQTRGLLGCIITGLTGRDKNQVEGEVQIVSTAAQTFLATCINGVCWTVYHGAGTRTIASSKGPVIQMYTNVDQDLVGWPAPQGARSLTPCTCGSSDLYLVTRHADVIPVRRRGDGRGSLLSPRPISYLKGSSGGPLLCPAGHAVGIFRAAVCTRGVAKAVDFIPVEGLETTMRSPVFSDNSSPPAVPQSYQVAHLHAPTGSGKSTKVPAAYAAQGYKVLVLNPSVAATLGFGAYMSKAHGIDPNIRTGVRTITTGSPITYSTYGKFLADGGCSGSAYDIIICDECHSTDATSILGIGTVLDQAETAGARLTVLATATPPGSVTVPHPNIEEVALSTTGEIPFYGKAIPLEAIKGGRHLIFCHSKKKCDELAAKLVALGVNAVAYYRGLDVSVIPASGDVVVVATDALMTGFTGDFDSVIDCNTCVTQTVDFSLDPTFTIETTTLPQDAVSRTQRRGRTGRGKPGIYRFVTPGERPSGMFDSSVLCECYDAGCAWYELTPAETTVRLRAYMNTPGLPVCQDHLEFWEGVFTGLTHIDAHFLSQTKQSGENLPYLVAYQATVCARAQAPPPSWDQMWKCLIRLKPTLHGPTPLLYRLGAVQNEITLTHPITKYIMTCMSADLEVVT
Regarding B1, the Km in data set [1] came to 5 µM; in data set [2], 5 µM; in data set [3] it was 4 µM; in data set [4] it was 9 µM; in data set [5], 4 µM; in data set [6] it was 100 µM.

These data come from ChEMBL document CHEMBL1135259, “Azapeptides as inhibitors of the hepatitis C virus NS3 serine protease” (Bioorg Med Chem Lett, 2002).
